Test results as given in patent US20060210984A1.

Tests used:
IL-1b (human) [1] = molecular target: IL-1b (human) (UniProt P01584); experiment: sandwich microarray in flow cell, chemiluminescence, cytokine 1 ng/ml; Chip 1
IL-1b (human) [2] = molecular target: IL-1b (human) (UniProt P01584); experiment: sandwich microarray in flow cell, chemiluminescence, cytokine 1 ng/ml; Chip 2
IL-1b (human) [3] = molecular target: IL-1b (human) (UniProt P01584); experiment: sandwich microarray in flow cell, chemiluminescence, cytokine 1 ng/ml; Chip 3
IL-1b (human) [4] = molecular target: IL-1b (human) (UniProt P01584); experiment: sandwich microarray in flow cell, chemiluminescence, cytokine 1 ng/ml; Chip 4
IL-1b (human) [5] = molecular target: IL-1b (human) (UniProt P01584); experiment: sandwich microarray in flow cell, chemiluminescence, cytokine 1 ng/ml; Chip 5
IL-1b (human) [6] = molecular target: IL-1b (human) (UniProt P01584); experiment: sandwich microarray in flow cell, chemiluminescence, cytokine 1 ng/ml; AVG of Chips 1-5
IL-1b (human) [7] = molecular target: IL-1b (human) (UniProt P01584); experiment: sandwich microarray in flow cell, chemiluminescence, cytokine 1 ng/ml, divided by chip-specific PNA calibration factor; Chip 1
IL-1b (human) [8] = molecular target: IL-1b (human) (UniProt P01584); experiment: sandwich microarray in flow cell, chemiluminescence, cytokine 1 ng/ml, divided by chip-specific PNA calibration factor; Chip 2
IL-1b (human) [9] = molecular target: IL-1b (human) (UniProt P01584); experiment: sandwich microarray in flow cell, chemiluminescence, cytokine 1 ng/ml, divided by chip-specific PNA calibration factor; Chip 3
IL-1b (human) [10] = molecular target: IL-1b (human) (UniProt P01584); experiment: sandwich microarray in flow cell, chemiluminescence, cytokine 1 ng/ml, divided by chip-specific PNA calibration factor; Chip 4
IL-1b (human) [11] = molecular target: IL-1b (human) (UniProt P01584); experiment: sandwich microarray in flow cell, chemiluminescence, cytokine 1 ng/ml, divided by chip-specific PNA calibration factor; Chip 5
IL-1b (human) [12] = molecular target: IL-1b (human) (UniProt P01584); experiment: sandwich microarray in flow cell, chemiluminescence, cytokine 1 ng/ml, divided by chip-specific PNA calibration factor; AVG of Chips 1-5
IL-2 (human) [13] = molecular target: IL-2 (human) (UniProt P60568); experiment: sandwich microarray in flow cell, chemiluminescence, cytokine 1 ng/ml; Chip 1
Sequence of UniProt P60568 (P60568 21-153 limits assumed): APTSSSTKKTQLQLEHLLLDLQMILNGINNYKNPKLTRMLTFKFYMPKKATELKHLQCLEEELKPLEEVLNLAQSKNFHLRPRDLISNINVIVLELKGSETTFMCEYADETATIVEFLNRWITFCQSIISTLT

IL-2 (human) [14] = molecular target: IL-2 (human) (UniProt P60568); experiment: sandwich microarray in flow cell, chemiluminescence, cytokine 1 ng/ml; Chip 2
IL-2 (human) [15] = molecular target: IL-2 (human) (UniProt P60568); experiment: sandwich microarray in flow cell, chemiluminescence, cytokine 1 ng/ml; Chip 3
IL-2 (human) [16] = molecular target: IL-2 (human) (UniProt P60568); experiment: sandwich microarray in flow cell, chemiluminescence, cytokine 1 ng/ml; Chip 4
IL-2 (human) [17] = molecular target: IL-2 (human) (UniProt P60568); experiment: sandwich microarray in flow cell, chemiluminescence, cytokine 1 ng/ml; Chip 5
IL-2 (human) [18] = molecular target: IL-2 (human) (UniProt P60568); experiment: sandwich microarray in flow cell, chemiluminescence, cytokine 1 ng/ml; AVG of Chips 1-5
IL-2 (human) [19] = molecular target: IL-2 (human) (UniProt P60568); experiment: sandwich microarray in flow cell, chemiluminescence, cytokine 1 ng/ml, divided by chip-specific PNA calibration factor; Chip 1
IL-2 (human) [20] = molecular target: IL-2 (human) (UniProt P60568); experiment: sandwich microarray in flow cell, chemiluminescence, cytokine 1 ng/ml, divided by chip-specific PNA calibration factor; Chip 2
IL-2 (human) [21] = molecular target: IL-2 (human) (UniProt P60568); experiment: sandwich microarray in flow cell, chemiluminescence, cytokine 1 ng/ml, divided by chip-specific PNA calibration factor; Chip 3
IL-2 (human) [22] = molecular target: IL-2 (human) (UniProt P60568); experiment: sandwich microarray in flow cell, chemiluminescence, cytokine 1 ng/ml, divided by chip-specific PNA calibration factor; Chip 4
IL-2 (human) [23] = molecular target: IL-2 (human) (UniProt P60568); experiment: sandwich microarray in flow cell, chemiluminescence, cytokine 1 ng/ml, divided by chip-specific PNA calibration factor; Chip 5
IL-2 (human) [24] = molecular target: IL-2 (human) (UniProt P60568); experiment: sandwich microarray in flow cell, chemiluminescence, cytokine 1 ng/ml, divided by chip-specific PNA calibration factor; AVG of Chips 1-5
IL-12p70 (human) [25] = molecular target: IL-12p70 (human) (UniProt P29459); experiment: sandwich microarray in flow cell, chemiluminescence, cytokine 1 ng/ml; Chip 1
Sequence of UniProt P29459 (P29459 23-219 limits assumed, chain 1 of 2): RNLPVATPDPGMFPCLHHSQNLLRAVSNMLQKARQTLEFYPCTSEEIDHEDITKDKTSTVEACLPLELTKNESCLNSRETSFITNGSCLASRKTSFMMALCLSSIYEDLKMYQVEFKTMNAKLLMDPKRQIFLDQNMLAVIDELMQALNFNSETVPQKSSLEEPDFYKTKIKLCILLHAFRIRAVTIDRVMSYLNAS
Sequence of UniProt P29459 (P29460 23-328 limits assumed, chain 2 of 2, further chain): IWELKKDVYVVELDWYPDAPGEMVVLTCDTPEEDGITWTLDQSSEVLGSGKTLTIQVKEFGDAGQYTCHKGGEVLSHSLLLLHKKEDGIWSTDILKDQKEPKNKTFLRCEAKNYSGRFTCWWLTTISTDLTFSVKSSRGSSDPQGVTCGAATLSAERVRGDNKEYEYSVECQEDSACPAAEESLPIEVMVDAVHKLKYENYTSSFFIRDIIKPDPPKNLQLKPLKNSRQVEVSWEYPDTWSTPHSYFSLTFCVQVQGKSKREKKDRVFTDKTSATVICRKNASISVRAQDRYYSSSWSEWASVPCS

IL-12p70 (human) [26] = molecular target: IL-12p70 (human) (UniProt P29459); experiment: sandwich microarray in flow cell, chemiluminescence, cytokine 1 ng/ml; Chip 2
IL-12p70 (human) [27] = molecular target: IL-12p70 (human) (UniProt P29459); experiment: sandwich microarray in flow cell, chemiluminescence, cytokine 1 ng/ml; Chip 3
IL-12p70 (human) [28] = molecular target: IL-12p70 (human) (UniProt P29459); experiment: sandwich microarray in flow cell, chemiluminescence, cytokine 1 ng/ml; Chip 4
IL-12p70 (human) [29] = molecular target: IL-12p70 (human) (UniProt P29459); experiment: sandwich microarray in flow cell, chemiluminescence, cytokine 1 ng/ml; Chip 5
IL-12p70 (human) [30] = molecular target: IL-12p70 (human) (UniProt P29459); experiment: sandwich microarray in flow cell, chemiluminescence, cytokine 1 ng/ml; AVG of Chips 1-5
IL-12p70 (human) [31] = molecular target: IL-12p70 (human) (UniProt P29459); experiment: sandwich microarray in flow cell, chemiluminescence, cytokine 1 ng/ml, divided by chip-specific PNA calibration factor; Chip 1
IL-12p70 (human) [32] = molecular target: IL-12p70 (human) (UniProt P29459); experiment: sandwich microarray in flow cell, chemiluminescence, cytokine 1 ng/ml, divided by chip-specific PNA calibration factor; Chip 2
IL-12p70 (human) [33] = molecular target: IL-12p70 (human) (UniProt P29459); experiment: sandwich microarray in flow cell, chemiluminescence, cytokine 1 ng/ml, divided by chip-specific PNA calibration factor; Chip 3
IL-12p70 (human) [34] = molecular target: IL-12p70 (human) (UniProt P29459); experiment: sandwich microarray in flow cell, chemiluminescence, cytokine 1 ng/ml, divided by chip-specific PNA calibration factor; Chip 4
IL-12p70 (human) [35] = molecular target: IL-12p70 (human) (UniProt P29459); experiment: sandwich microarray in flow cell, chemiluminescence, cytokine 1 ng/ml, divided by chip-specific PNA calibration factor; Chip 5
IL-12p70 (human) [36] = molecular target: IL-12p70 (human) (UniProt P29459); experiment: sandwich microarray in flow cell, chemiluminescence, cytokine 1 ng/ml, divided by chip-specific PNA calibration factor; AVG of Chips 1-5

Sequence of UniProt P01584 (P01584 117-269 limits assumed): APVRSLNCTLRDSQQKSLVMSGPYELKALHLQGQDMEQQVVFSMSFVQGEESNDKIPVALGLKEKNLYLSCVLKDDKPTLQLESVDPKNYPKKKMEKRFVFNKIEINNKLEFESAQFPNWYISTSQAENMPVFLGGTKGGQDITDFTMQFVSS

Work on “MAb IL-1b (monoclonal capture antibody of the anti-human IL-1b OptEIA matched pair, BD Biosciences-Pharmingen)” yielded a chemiluminescent spot intensity (Un-Calibrated Data) (IL-1b (human) [1]) of 297, a chemiluminescent spot intensity (Un-Calibrated Data) (IL-1b (human) [2]) of 150 and a chemiluminescent spot intensity (Un-Calibrated Data) (IL-1b (human) [3]) of 486. It also gave a chemiluminescent spot intensity (Un-Calibrated Data) (IL-1b (human) [4]) of 221, a chemiluminescent spot intensity (Un-Calibrated Data) (IL-1b (human) [5]) of 131 and a chemiluminescent spot intensity (Un-Calibrated Data) (IL-1b (human) [6]) of 257. The chemiluminescent spot intensity (Calibrated Data) (IL-1b (human) [7]) was 498, the chemiluminescent spot intensity (Calibrated Data) (IL-1b (human) [8]) was 513 and the chemiluminescent spot intensity (Calibrated Data) (IL-1b (human) [9]) was 486. It also gave a chemiluminescent spot intensity (Calibrated Data) (IL-1b (human) [10]) of 485, a chemiluminescent spot intensity (Calibrated Data) (IL-1b (human) [11]) of 404 and a chemiluminescent spot intensity (Calibrated Data) (IL-1b (human) [12]) of 477.

Work on “MAb IL-2 (monoclonal capture antibody of the anti-human IL-2 OptEIA matched pair, BD Biosciences-Pharmingen)” yielded a chemiluminescent spot intensity (Un-Calibrated Data) (IL-2 (human) [13]) of 251, a chemiluminescent spot intensity (Un-Calibrated Data) (IL-2 (human) [14]) of 127 and a chemiluminescent spot intensity (Un-Calibrated Data) (IL-2 (human) [15]) of 441. It also gave a chemiluminescent spot intensity (Un-Calibrated Data) (IL-2 (human) [16]) of 196, a chemiluminescent spot intensity (Un-Calibrated Data) (IL-2 (human) [17]) of 126 and a chemiluminescent spot intensity (Un-Calibrated Data) (IL-2 (human) [18]) of 228. It also gave a chemiluminescent spot intensity (Calibrated Data) (IL-2 (human) [19]) of 421, a chemiluminescent spot intensity (Calibrated Data) (IL-2 (human) [20]) of 434 and a chemiluminescent spot intensity (Calibrated Data) (IL-2 (human) [21]) of 441. It also gave a chemiluminescent spot intensity (Calibrated Data) (IL-2 (human) [22]) of 430, a chemiluminescent spot intensity (Calibrated Data) (IL-2 (human) [23]) of 389 and a chemiluminescent spot intensity (Calibrated Data) (IL-2 (human) [24]) of 423.

Work on “MAb IL-12 p70 (monoclonal capture antibody of the anti-human IL-12p70 OptEIA matched pair, BD Biosciences-Pharmingen)” yielded a chemiluminescent spot intensity (Un-Calibrated Data) (IL-12p70 (human) [25]) of 554, a chemiluminescent spot intensity (Un-Calibrated Data) (IL-12p70 (human) [26]) of 255 and a chemiluminescent spot intensity (Un-Calibrated Data) (IL-12p70 (human) [27]) of 956. The chemiluminescent spot intensity (Un-Calibrated Data) (IL-12p70 (human) [28]) was 397, the chemiluminescent spot intensity (Un-Calibrated Data) (IL-12p70 (human) [29]) was 288 and the chemiluminescent spot intensity (Un-Calibrated Data) (IL-12p70 (human) [30]) was 490. For the same substance, the chemiluminescent spot intensity (Calibrated Data) (IL-12p70 (human) [31]) was 929, the chemiluminescent spot intensity (Calibrated Data) (IL-12p70 (human) [32]) was 872 and the chemiluminescent spot intensity (Calibrated Data) (IL-12p70 (human) [33]) was 956. For the same substance, the chemiluminescent spot intensity (Calibrated Data) (IL-12p70 (human) [34]) was 872, the chemiluminescent spot intensity (Calibrated Data) (IL-12p70 (human) [35]) was 888 and the chemiluminescent spot intensity (Calibrated Data) (IL-12p70 (human) [36]) was 903.
